Measurements: US20110142868A1 (CHIRALIX B V, published 2011)
Square brackets hold non-standard residues; d marks the D form. * marks the point of attachment. Orn(fluoroacetimidoyl) = N=C(CF)NCCC[C@H](N)C(=O)O; 2Naphthylsulfonyl = O=S(=O)(c1ccc2ccccc2c1)*; AEEA = NCCOCCOCC(=O)O

Tests used:
Assay in all cases: cell-based or functional assay
recombinant human PAD2 [1] = biological target: T1, recombinant human PAD2 (human, UniProt Q9Y2J8 1-665)
recombinant human PAD4 [2] = biological target: T2, recombinant human PAD4 (human, UniProt Q9UM07 1-663)
recombinant human PAD2 [3] = biological target: T1, recombinant human PAD2; remark: listed apart in the source
recombinant human PAD4 [4] = biological target: T2, recombinant human PAD4; remark: listed apart in the source
recombinant human PAD2 [5] = biological target: T1, recombinant human PAD2; remark: listed apart in the source
recombinant human PAD4 [6] = biological target: T2, recombinant human PAD4; remark: listed apart in the source

T1 sequence (Q9Y2J8 whole entry): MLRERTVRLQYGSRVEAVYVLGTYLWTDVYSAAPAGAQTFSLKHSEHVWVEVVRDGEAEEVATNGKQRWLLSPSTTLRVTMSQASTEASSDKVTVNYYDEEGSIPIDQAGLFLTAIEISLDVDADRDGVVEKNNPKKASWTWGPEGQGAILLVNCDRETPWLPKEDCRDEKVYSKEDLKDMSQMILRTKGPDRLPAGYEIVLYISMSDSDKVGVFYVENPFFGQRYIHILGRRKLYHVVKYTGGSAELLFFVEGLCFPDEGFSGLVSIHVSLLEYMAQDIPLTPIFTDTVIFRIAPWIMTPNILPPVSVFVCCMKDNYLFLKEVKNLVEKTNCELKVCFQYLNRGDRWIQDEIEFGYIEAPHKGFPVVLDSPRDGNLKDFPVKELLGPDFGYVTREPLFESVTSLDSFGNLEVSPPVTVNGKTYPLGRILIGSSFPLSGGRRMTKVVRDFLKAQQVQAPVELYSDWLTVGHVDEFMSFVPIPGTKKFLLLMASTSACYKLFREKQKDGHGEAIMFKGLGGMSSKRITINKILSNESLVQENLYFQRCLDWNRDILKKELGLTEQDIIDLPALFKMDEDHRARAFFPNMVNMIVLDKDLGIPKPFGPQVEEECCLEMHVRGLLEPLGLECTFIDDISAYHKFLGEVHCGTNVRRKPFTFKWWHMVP
T2 sequence (Q9UM07 whole entry): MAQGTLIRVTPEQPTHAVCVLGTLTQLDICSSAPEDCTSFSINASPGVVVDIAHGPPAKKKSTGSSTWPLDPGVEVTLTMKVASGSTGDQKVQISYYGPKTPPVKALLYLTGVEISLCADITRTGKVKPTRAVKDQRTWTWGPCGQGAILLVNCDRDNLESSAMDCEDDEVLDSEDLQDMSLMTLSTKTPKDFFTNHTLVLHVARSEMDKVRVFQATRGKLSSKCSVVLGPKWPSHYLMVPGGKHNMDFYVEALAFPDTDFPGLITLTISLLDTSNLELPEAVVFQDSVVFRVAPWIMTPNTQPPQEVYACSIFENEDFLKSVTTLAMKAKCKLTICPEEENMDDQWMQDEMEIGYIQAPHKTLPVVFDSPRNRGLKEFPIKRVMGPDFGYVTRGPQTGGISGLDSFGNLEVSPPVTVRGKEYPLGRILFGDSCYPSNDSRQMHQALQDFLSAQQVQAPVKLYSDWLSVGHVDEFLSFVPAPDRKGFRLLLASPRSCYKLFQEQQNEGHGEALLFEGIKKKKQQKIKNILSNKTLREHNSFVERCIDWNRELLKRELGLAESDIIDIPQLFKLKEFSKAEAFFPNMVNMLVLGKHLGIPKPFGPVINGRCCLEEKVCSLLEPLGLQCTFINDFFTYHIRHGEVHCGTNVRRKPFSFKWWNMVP

B1: 0748-17FA (peptide)
peptide: Ac-KLH[Orn(fluoroacetimidoyl)]EWM-NH2
SMILES: CSCC[C@H](NC(=O)[C@H](Cc1c[nH]c2ccccc12)NC(=O)[C@H](CCC(=O)O)NC(=O)[C@H](CCCNC(=N)CF)NC(=O)[C@H](Cc1c[nH]cn1)NC(=O)[C@H](CC(C)C)NC(=O)[C@H](CCCCN)NC(C)=O)C(N)=O
Recombinant human PAD2 [1]
  conversion of 0708-30 by PAD2, 10 µM inhibitor (0 µM: 68): 58%
  conversion of 0708-30 by PAD2, 50 µM inhibitor (0 µM: 68): 35%
  conversion of 0708-30 by PAD2, 100 µM inhibitor (0 µM: 68): 24%
Recombinant human PAD4 [2]
  conversion of 0708-30 by PAD4, 10 µM inhibitor (0 µM: 81): 64%
  conversion of 0708-30 by PAD4, 50 µM inhibitor (0 µM: 81): 32%
  conversion of 0708-30 by PAD4, 100 µM inhibitor (0 µM: 81): 18%

B2: 0748-25FA (peptide)
peptide: Ac-KHD[Orn(fluoroacetimidoyl)]DFL-NH2
SMILES: CC(=O)N[C@@H](CCCCN)C(=O)N[C@@H](Cc1c[nH]cn1)C(=O)N[C@@H](CC(=O)O)C(=O)N[C@@H](CCCNC(=N)CF)C(=O)N[C@@H](CC(=O)O)C(=O)N[C@@H](Cc1ccccc1)C(=O)N[C@@H](CC(C)C)C(N)=O
Recombinant human PAD2 [1]
  conversion of 0708-30 by PAD2, 10 µM inhibitor (0 µM: 68): 47%
  conversion of 0708-30 by PAD2, 50 µM inhibitor (0 µM: 68): 20%
  conversion of 0708-30 by PAD2, 100 µM inhibitor (0 µM: 68): 11%
Recombinant human PAD4 [2]
  conversion of 0708-30 by PAD4, 10 µM inhibitor (0 µM: 81): 45%
  conversion of 0708-30 by PAD4, 50 µM inhibitor (0 µM: 81): 18%
  conversion of 0708-30 by PAD4, 100 µM inhibitor (0 µM: 81): 12%

B3: 0741-03FA (peptide)
peptide: Ac-FFDSHKFD[Orn(fluoroacetimidoyl)]DFIYSD-NH2
SMILES: CC[C@H](C)[C@H](NC(=O)[C@H](Cc1ccccc1)NC(=O)[C@H](CC(=O)O)NC(=O)[C@H](CCCNC(=N)CF)NC(=O)[C@H](CC(=O)O)NC(=O)[C@H](Cc1ccccc1)NC(=O)[C@H](CCCCN)NC(=O)[C@H](Cc1c[nH]cn1)NC(=O)[C@H](CO)NC(=O)[C@H](CC(=O)O)NC(=O)[C@H](Cc1ccccc1)NC(=O)[C@H](Cc1ccccc1)NC(C)=O)C(=O)N[C@@H](Cc1ccc(O)cc1)C(=O)N[C@@H](CO)C(=O)N[C@@H](CC(=O)O)C(N)=O
Recombinant human PAD2 [3]
  conversion of 0708-30 by PAD2, 10 µM inhibitor: 39%
  conversion of 0708-30 by PAD2, 50 µM inhibitor: 13%
  conversion of 0708-30 by PAD2, 100 µM inhibitor: 6%
Recombinant human PAD4 [4]
  conversion of 0708-30 by PAD4, 10 µM inhibitor: 45%
  conversion of 0708-30 by PAD4, 50 µM inhibitor: 12%
  conversion of 0708-30 by PAD4, 100 µM inhibitor: 9%

B4: 0837-30FA (peptide)
peptide: 2Naphthylsulfonyl-KWH[Orn(fluoroacetimidoyl)]DFF-NH2
SMILES: N=C(CF)NCCC[C@H](NC(=O)[C@H](Cc1c[nH]cn1)NC(=O)[C@H](Cc1c[nH]c2ccccc12)NC(=O)[C@H](CCCCN)NS(=O)(=O)c1ccc2ccccc2c1)C(=O)N[C@@H](CC(=O)O)C(=O)N[C@@H](Cc1ccccc1)C(=O)N[C@@H](Cc1ccccc1)C(N)=O
Recombinant human PAD2 [5]
  Inhibition of PAD2: value at 10 µM inhibitor (0 µM: 76): 9%
  Inhibition of PAD2: value at 20 µM inhibitor (0 µM: 76): 3%
  Inhibition of PAD2: value at 40 µM inhibitor (0 µM: 76): 2%
  Inhibition of PAD2: value at 80 µM inhibitor (0 µM: 76): 1%
Recombinant human PAD4 [6]
  Inhibition of PAD4: value at 10 µM inhibitor (0 µM: 67): 37%
  Inhibition of PAD4: value at 20 µM inhibitor (0 µM: 67): 24%
  Inhibition of PAD4: value at 40 µM inhibitor (0 µM: 67): 13%
  Inhibition of PAD4: value at 80 µM inhibitor (0 µM: 67): 7%

B5: 0837-28FA (peptide)
peptide: 2Naphthylsulfonyl-KWH[Orn(fluoroacetimidoyl)]DFF[AEEA]-NH2
SMILES: N=C(CF)NCCC[C@H](NC(=O)[C@H](Cc1c[nH]cn1)NC(=O)[C@H](Cc1c[nH]c2ccccc12)NC(=O)[C@H](CCCCN)NS(=O)(=O)c1ccc2ccccc2c1)C(=O)N[C@@H](CC(=O)O)C(=O)N[C@@H](Cc1ccccc1)C(=O)N[C@@H](Cc1ccccc1)C(=O)NCCOCCOCC(N)=O
Recombinant human PAD2 [5]
  Inhibition of PAD2: value at 10 µM inhibitor (0 µM: 76): 17%
  Inhibition of PAD2: value at 20 µM inhibitor (0 µM: 76): 8%
  Inhibition of PAD2: value at 40 µM inhibitor (0 µM: 76): 4%
  Inhibition of PAD2: value at 80 µM inhibitor (0 µM: 76): 2%
Recombinant human PAD4 [6]
  Inhibition of PAD4: value at 10 µM inhibitor (0 µM: 67): 37%
  Inhibition of PAD4: value at 20 µM inhibitor (0 µM: 67): 23%
  Inhibition of PAD4: value at 40 µM inhibitor (0 µM: 67): 17%
  Inhibition of PAD4: value at 80 µM inhibitor (0 µM: 67): 9%

B6: 0837-13FA (peptide)
peptide: Ac-KFD[Orn(fluoroacetimidoyl)]DFI[AEEA]-NH2
SMILES: CC[C@H](C)[C@H](NC(=O)[C@H](Cc1ccccc1)NC(=O)[C@H](CC(=O)O)NC(=O)[C@H](CCCNC(=N)CF)NC(=O)[C@H](CC(=O)O)NC(=O)[C@H](Cc1ccccc1)NC(=O)[C@H](CCCCN)NC(C)=O)C(=O)NCCOCCOCC(N)=O
Recombinant human PAD2 [5]
  Inhibition of PAD2: value at 10 µM inhibitor (0 µM: 74): 43%
  Inhibition of PAD2: value at 20 µM inhibitor (0 µM: 74): 30%
  Inhibition of PAD2: value at 40 µM inhibitor (0 µM: 74): 20%
  Inhibition of PAD2: value at 80 µM inhibitor (0 µM: 74): 11%
Recombinant human PAD4 [6]
  Inhibition of PAD4: value at 10 µM inhibitor (0 µM: 71): 48%
  Inhibition of PAD4: value at 20 µM inhibitor (0 µM: 71): 33%
  Inhibition of PAD4: value at 40 µM inhibitor (0 µM: 71): 23%
  Inhibition of PAD4: value at 80 µM inhibitor (0 µM: 71): 16%

B7: 0741-02FA (peptide)
peptide: Ac-FFDSHKWH[Orn(fluoroacetimidoyl)]DFFYSD-NH2
SMILES: CC(=O)N[C@@H](Cc1ccccc1)C(=O)N[C@@H](Cc1ccccc1)C(=O)N[C@@H](CC(=O)O)C(=O)N[C@@H](CO)C(=O)N[C@@H](Cc1c[nH]cn1)C(=O)N[C@@H](CCCCN)C(=O)N[C@@H](Cc1c[nH]c2ccccc12)C(=O)N[C@@H](Cc1c[nH]cn1)C(=O)N[C@@H](CCCNC(=N)CF)C(=O)N[C@@H](CC(=O)O)C(=O)N[C@@H](Cc1ccccc1)C(=O)N[C@@H](Cc1ccccc1)C(=O)N[C@@H](Cc1ccc(O)cc1)C(=O)N[C@@H](CO)C(=O)N[C@@H](CC(=O)O)C(N)=O
Recombinant human PAD2 [3]
  conversion of 0708-30 by PAD2, 10 µM inhibitor: 52%
  conversion of 0708-30 by PAD2, 50 µM inhibitor: 17%
  conversion of 0708-30 by PAD2, 100 µM inhibitor: 7%
Recombinant human PAD4 [4]
  conversion of 0708-30 by PAD4, 10 µM inhibitor: 50%
  conversion of 0708-30 by PAD4, 50 µM inhibitor: 20%
  conversion of 0708-30 by PAD4, 100 µM inhibitor: 16%

B8: 0837-14FA (peptide)
peptide: Ac-KWH[Orn(fluoroacetimidoyl)]DFF[AEEA]-NH2
SMILES: CC(=O)N[C@@H](CCCCN)C(=O)N[C@@H](Cc1c[nH]c2ccccc12)C(=O)N[C@@H](Cc1c[nH]cn1)C(=O)N[C@@H](CCCNC(=N)CF)C(=O)N[C@@H](CC(=O)O)C(=O)N[C@@H](Cc1ccccc1)C(=O)N[C@@H](Cc1ccccc1)C(=O)NCCOCCOCC(N)=O
Recombinant human PAD2 [5]
  Inhibition of PAD2: value at 10 µM inhibitor (0 µM: 76): 38%
  Inhibition of PAD2: value at 20 µM inhibitor (0 µM: 76): 24%
  Inhibition of PAD2: value at 40 µM inhibitor (0 µM: 76): 14%
  Inhibition of PAD2: value at 80 µM inhibitor (0 µM: 76): 8%
Recombinant human PAD4 [6]
  Inhibition of PAD4: value at 10 µM inhibitor (0 µM: 67): 54%
  Inhibition of PAD4: value at 20 µM inhibitor (0 µM: 67): 39%
  Inhibition of PAD4: value at 40 µM inhibitor (0 µM: 67): 29%
  Inhibition of PAD4: value at 80 µM inhibitor (0 µM: 67): 21%

B9: 0837-29FA (peptide)
peptide: 2Naphthylsulfonyl-KFD[Orn(fluoroacetimidoyl)]DFI-NH2
Recombinant human PAD2 [5]
  Inhibition of PAD2: value at 10 µM inhibitor (0 µM: 74): 16%
  Inhibition of PAD2: value at 20 µM inhibitor (0 µM: 74): 9%
  Inhibition of PAD2: value at 40 µM inhibitor (0 µM: 74): 5%
  Inhibition of PAD2: value at 80 µM inhibitor (0 µM: 74): 2%
Recombinant human PAD4 [6]
  Inhibition of PAD4: value at 10 µM inhibitor (0 µM: 71): 33%
  Inhibition of PAD4: value at 20 µM inhibitor (0 µM: 71): 16%
  Inhibition of PAD4: value at 40 µM inhibitor (0 µM: 71): 10%
  Inhibition of PAD4: value at 80 µM inhibitor (0 µM: 71): 5%

B10: 0748-01FA (peptide)
peptide: Ac-HFD[Orn(fluoroacetimidoyl)]EWI-NH2
SMILES: CC[C@H](C)[C@H](NC(=O)[C@H](Cc1c[nH]c2ccccc12)NC(=O)[C@H](CCC(=O)O)NC(=O)[C@H](CCCNC(=N)CF)NC(=O)[C@H](CC(=O)O)NC(=O)[C@H](Cc1ccccc1)NC(=O)[C@H](Cc1c[nH]cn1)NC(C)=O)C(N)=O
Recombinant human PAD2 [1]
  conversion of 0708-30 by PAD2, 10 µM inhibitor (0 µM: 68): 67%
  conversion of 0708-30 by PAD2, 50 µM inhibitor (0 µM: 68): 36%
  conversion of 0708-30 by PAD2, 100 µM inhibitor (0 µM: 68): 21%
Recombinant human PAD4 [2]
  conversion of 0708-30 by PAD4, 10 µM inhibitor (0 µM: 81): 50%
  conversion of 0708-30 by PAD4, 50 µM inhibitor (0 µM: 81): 25%
  conversion of 0708-30 by PAD4, 100 µM inhibitor (0 µM: 81): 12%

B11: 0837-27FA (peptide)
peptide: 2Naphthylsulfonyl-KFD[Orn(fluoroacetimidoyl)]DFI[AEEA]-NH2
SMILES: CC[C@H](C)[C@H](NC(=O)[C@H](Cc1ccccc1)NC(=O)[C@H](CC(=O)O)NC(=O)[C@H](CCCNC(=N)CF)NC(=O)[C@H](CC(=O)O)NC(=O)[C@H](Cc1ccccc1)NC(=O)[C@H](CCCCN)NS(=O)(=O)c1ccc2ccccc2c1)C(=O)NCCOCCOCC(N)=O
Recombinant human PAD2 [5]
  Inhibition of PAD2: value at 10 µM inhibitor (0 µM: 74): 24%
  Inhibition of PAD2: value at 20 µM inhibitor (0 µM: 74): 14%
  Inhibition of PAD2: value at 40 µM inhibitor (0 µM: 74): 7%
  Inhibition of PAD2: value at 80 µM inhibitor (0 µM: 74): 4%
Recombinant human PAD4 [6]
  Inhibition of PAD4: value at 10 µM inhibitor (0 µM: 71): 35%
  Inhibition of PAD4: value at 20 µM inhibitor (0 µM: 71): 20%
  Inhibition of PAD4: value at 40 µM inhibitor (0 µM: 71): 12%
  Inhibition of PAD4: value at 80 µM inhibitor (0 µM: 71): 7%
